Assay results as given in the nanobody polyreactivity screen of Harvey et al. (2022).

Test: yeast display, Sf9 membrane polyspecificity reagent, FACS + sequencing; frameworks hold sequencing errors
In short: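 A synthetic nanobody library was expressed on Saccharomyces cerevisiae BJ5465 by galactose induction for 36–48 hours. The library was stained for 1 hour at 4 °C with 10% biotinylated, detergent-solubilized Sf9 membrane reagent and enriched with streptavidin microbeads before FACS. Low and high (top ~1%) gates were set on anti-HA fluorescence for expression and streptavidin fluorescence for reagent binding, and each polyreactivity label reflects the gate of origin.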

| Sequence | polyreactivity (PSR sort gate) |
| --- | --- |
| QVQLVESGGGLVQAGGSLRLSCAASGSTLVDYAMGWYRQAPRKERELVATISFRGGSTYYADSVKGRFTISRDNAKNTVYLQMNSLKPEDTAVYYCAREYGDGYEYWGQGTQVTVSS | low polyreactivity |
| QVQLVESGGGLVQAGGSLRLSCAASGRIFRDNAMGWYRQAPGKERELVAAITSSGGSTNYADSVKGRFTISRDNAKNTVYLQMNSLKPEDTAVYYCNTDRLGAARYDYWGQGTQVTVSS | low polyreactivity |
| QVQLVESGGGLLQAGGSLRLSCAASGFTFSFYARGWYRQAPGKERELVAAISYSGGITYYADSVKGRFTISRDNAKNTVYLQINSLKPEDTAVYYCAAVPGISVGRQPGYDYDYWGHGTQVTVSS | low polyreactivity |
| QVQLVESGGGLVQAGGSLRLSCAASGSTLVGNTMGWYRQSPGKERELVAAITGVGSTNYADSVKGRFTISRDNAKNTVYLQMNSLKPEDTAVYYCAAQYSYTYIVSYLYDMDYWGQGTQVTVSS | low polyreactivity |
| QVQLVESGGGLVQAGGSLRLSCAASGSIFYGNAMGRYRQAPGKERELVAGITGYGSPTYYADSVKGRFTISRDNAKNTVYLQMNSLKPEVTAVYYCARLTRTSRGMYDYWGQGTQVTVSS | high polyreactivity |
| QVQLVEAGVGLVQAVGSLRLSCAASGYIFVVNAMGWYRQAPGKERELVASITWSGDNTYYADSVKGRFTISRDNAKNTVYLQMNSLKPEDTAVYYCAATIWIAYRGWYSDYNYWGQGTQVTVSS | low polyreactivity |
| QVQLVESGGGLVQAGGSLRLSCAASGFTFSKYVMGWYRQAPGKERELVAAITTSGGSTYYADSVKGRFTISRDNAKNTVYLQMNSLKPEDTAVYYCNARSLHTSEGDYWGQGTQVTVSS | low polyreactivity |
| QVQLVESGGGLVQAGGSLRLSCAASGRTFSYNTMGWYRQAPGKVSELVAAISTGVSTYYADSVKGRFTISRDNAKNTVYLQMNSLKPEDTEVYYCARGGRPRWYPPHNYWGQGTQLTVSS | low polyreactivity |
| QVQIVESGGGVVQAGGSLRLSCAASGYILDRNSMGWYRQAPGKERELVAVISWGGTRTYYADSVKGRFTISRDNAKNTVSLQMNSLKPVDTAVYYCNGKGWYYKYDYWGQGTQVTVSS | high polyreactivity |
| QVQLVESGGGLVQAGGSLRLSCAASGSTFYVNAMGWYRQAPGKEREFVAAISWSGGSTYYADSVKGRFTISRDNAKNTVYLQMNSLKPEDTAVYYCAADRVRKDGVLFDYWGQGTQGTVSS | high polyreactivity |
| QVQLQESGGGLEQAGGSLRPSCAASGSISDGVPMGWYRQAPGEERELVATTVLGATTNYADSVKGRFTISRGNAKNTVYLQMNSLKPEETAVYYCAAPLRYDKGFSYWGQGTQVTVSS | low polyreactivity |
| QVQLVESGGGLVQAGGSLRLRCAASGFIFGRYTMGWYRQAPGKERELVAAISSRGGSTYYADSVKGRFTISRDNAKNTVYLQMNSLKPEDTAVYYCAADEIYCYDYWGQGTQVTVSS | high polyreactivity |
| QVQLQESGGGLVQASGSLRLSCAASGNIFPDYLMGWYRLAPGKEREFVANITGGSTTNYADSVKGRFTISRDNATNTVYLQMNSLKPEDTAVYYCEVNFGTVVLYLYWGQGTQVTVSS | high polyreactivity |
| QVQLVESGGGLVQAGGSLRLSCAASGRIFYTNTMGWYRQAPGKERELVAAIRSGTRTYYADSVKGRFTISRDNAKNTVYLQMNSLKPEDTAVYYCAAYYSYYGGDYWGQGTQVTVSS | low polyreactivity |
| QVQHVESGGGLVQAGGSLRLSCAASGRIFVRNAMGWYRQARGKERELVADITNGGSTNYADSVKGRFTISRDNAKNTVYLQMNSLKPEDTAVYYCAVERYRYPFDYWGQGTQVTVSS | low polyreactivity |
| QVQLVESGGGLVQAGGSLRLSCAASGSIFVRNAKGCYRQAPWKERELVAAITATGGRTYYADSVKGRFTISRDNAKNTVYLQMNSLKPEDTAVYYCAAYYPRSGYDYWGQGTQVNVSS | high polyreactivity |
| QVQLVESGGGLVQAGGSLRLSCAASGSIIVRYAMGWYRQAPGKERELVATITFRDTSTYYADSVKGRFTISRDNAKNTVYLQMNRLIPEDTAVYYCAAVRADLWDIARYDYWGQGTQVTVSS | low polyreactivity |
| QVQLVESGGGLVQAGGSLRLSCAASGISFITYVMGWYRQAPGKERELVAAISLRGGRTSYADSVKGRFTISRDNAKNTVYLQMNSLKPEDTAVYYCAARAYYTRYDYWGQGTQVTVSS | high polyreactivity |
| QVQLVESGGGLVQAGGSLRLSCAASGFIRTAYAMGWYRQAPGKERELVAAIDWIGGSTYYADSVKGRFTISRDNAKNTVYLQMNSLKPEDTAVYYCAAVRYYWGQGTQVTVSS | low polyreactivity |
| QVQLVESGGGLVQAGGSLRLSCAASGSTFPYNAMGWYRQAPGKEWELVAAISQSGGSTYYADSVKGRFTISRDNAKNTVYLQMNSLKPEDTAVYYCATDQSLLAHYDYWGQGTQVTVSS | low polyreactivity |
| QVQLVESGGGLVQAGGSLRLSFAASGGTFRPYAMGWYRQAPGKETELVATIRSSGGRTYYADSVKGRFTISRDNAKNTVYLQMNSLKPEDTAVYYCAKRAQTYYGYDYWVQGTQVTVSS | high polyreactivity |
| QVQLVESGGGLVQAGGSLRLSCAASGLTFHRYAMGWYRQAPGKERELVAAINYSGGRTYYADSVKGRFTISRDNAKNTVYLQMNSLKPEDTAVYYCAASLYRRQMDHWGQGTQVTVSS | high polyreactivity |

| Sequence | polyreactivity (PSR sort gate) |
| --- | --- |
| QVELVESGGGLGQAGGSLRLSCAASGSTFASNTLGWYRQAPGKEREVVAAITQSGGTTYYADSVKGRFTISRDNAKNTVFLQMNSLKPEDTAVYYDYWGQGTQVTVSS | low polyreactivity |
| QVQLVESGGGIVQAGGSLRLTCAASGRTYTPYAMGWYRQAPGKERELVAAIDTSGGSTYADSVKGRFTISRDNAKNTVYLQMNSLKPEDTAVYYCATRGFYSWDYWYLWEYDYWGQGTQVTVSS | low polyreactivity |
| QVQLVDSGGGLVQAGGSLRLSCAASGITFTRYAMGWYRQAPGKERELVAAISSGGRTNYADSVKGRFTISRDNAKNTVYLQMNSLKREDTAVYYCNALYRARWGLGTQVTVSS | high polyreactivity |
| QVQLVESGGGLVQAGGSLLLSCAASGSTFRYYAMGWYRPAPGKERELVAATTSGGSTYYADSVKGRFTISRDNAKNTVYLQMNSLKPEDTAVYYCAKSISRYFFYRPSAAAYGYDYWGQGTQVTVSS | high polyreactivity |
| QVQLVESGGGLVQAGGSLRLSCAASGGIFAYYVMGWYRQAPGKERELVASISSGGGTYYADSVKGRFTISRDNAKNTVYLQMNSLKPEDTAVYYCAARWLRYVYPDGHLFWYDYWGQGTQVTVSS | high polyreactivity |
| QVQLVESGGGLVQAGGSLRLSCAASGSTYKFYAMGWYRQATGKERELVAAISGSSGSTYYADSVKGRFTISRDNAKNTVYLQMNSLKPEDTAVYYWNTQYSRYYTRYSAYDYWGQGTQVTVSS | low polyreactivity |
| QVQLVESGGGLVQAGGSLRLSCAASGFIFYDYAMGWYRQAPGKERELVAAISKRGGSTYYADSVKGRFTISRDNAKNTVYLQMNSLKPEDTAVYYCAATSYRRTGYNYWGQGTQVTVSS | high polyreactivity |
| QVQLVESGGGLVQAGGSLRLNCSAYGSTFFDYVMGWYRQAPGKERDLVAAITRGGSSNYADSVKGRFTISRDNAKNTVYLQMNRLKPEDTAVYYCNAKRDKGFYWWYNYWGQGNQVTVSS | high polyreactivity |
| QVQLVESGGGLVQAGGSLRLSCAASGSILQTNVMGWYRQAPGKEREFVAAIRWSTVSTYYADSVKGRFTISRDNAKNTVYLQMKSLKPEDTAVYYCASAKSWYSYKMDYWGQGTQVTVSS | low polyreactivity |
| QVQLVESGGGLVQAGGSLRLSCAASGSTFHRYAKGSYRQAPGKERELVARIIGSGGSTYYADSVKGRFTISRDNAKNTVYLQMNSLKPEDTAVYYCAADGLYYTYGYDYWGQGTQVTVSS | low polyreactivity |
| QVQLVESGGGLVQAGGSLRLSCAASGLTFDYYVMGWYRQAPGKERELVATISWSGDITYYADSVKGRFTISRDNAKNTVYLQMNSLKPEDTAVYYCATDKSYSSWSAQYDYWGQGTQVTVSS | low polyreactivity |
| QVQHVETGGGLVQAGGSLRLSCAASGRIFSYNAMGWYRQPPGKERELVAAISQRGGRTYYADSVKGRFTISRDNAKNTVYLQMNSLKPEDPAVYDCNKDKGQSLSSYGYWGQGTQVTVSS | high polyreactivity |
| QVQLVESGGRLVQAGGSLRLSCDPSGRTFWYYAMGWYRQAPGKERELVASISLSGSRTNYADSVKGRFTISRDNAKNTVYLQMNSLKPEDTAVYYCAADNFRQFGEYDYWGQGTQVTLSS | low polyreactivity |
| QVQLVDSGGGLVQAGGSLRLSCAASGRIFYFNAMGWYREAPGKERELVAAISKSGGSTYYADSVKGRFTISRDNAKNTVYLQMNSLKPEDTAVYYCAAGFWYYSYPTLYEYGYWGQGTQVTVSS | low polyreactivity |
| QVQLVESGGGLVQAGGSLRLSCAASGSTFGFYAMGWYRQAPGKERELVAAITGGGSTNYADSVKGRFTISRDNAKNTVYLQMNSLNPEDTAVYYCAVVQRYWYPGIVPYDYWGQGTQVTVSS | high polyreactivity |
| QVQLVESGGGLVQAGGSLRLSCAASGRIFGVYAMGWYRQSPGKERELVAPISRSGGRTYYADSVKGRFTISRDNAKNSDYLQMNSLKPEDTAVYYCNVVRWYYHPPLTGSRFDYWGQGTQVTVSS | high polyreactivity |
| QVQLVESGGGLVQAGGSLRLSCAASGIILWRNAMGWYRQAPGKDRELVAAITSSGGRTYYADSVKGRFTISRDNAKNTVYLQMNSLKPEDTAVYYCSAYGYSIGPYDYWGQGTQVTVSS | high polyreactivity |
| QAQLHESAGGLVQAGGCLRLSCAASGYFSKKWGMGWYRKAPGKERELVATIAKGASTYYADSMKGRFTISRDNAKYTMYRQMNSLKPEDTAVYYCGATQQDDQGLGYWGQDTQVTVSS | high polyreactivity |
| QVQLVQSGGGLVQAGGSLRLSCAASGYTFYVNTMGWYRKAPGKERELVAVISSGGRTNYADSVKGRFTISRDNAKNTVYLQMNSLKPEDTAVYYCAAIGWRTRYRFEYWGIGTQVTVSS | high polyreactivity |
| QVQLVESGGGLVQAGGSLRLSCAASGTYKYYAMGWYRHAPGKERELVAATNRGGSTNYADSVKGRFTISRDNAKNTVYLQMNSLKPEDTAVYYCAAERWYVRGRHYYYWGQGTQVTVSS | high polyreactivity |
| QVQLVESGGGLVQAGGSLRLSCAASGITFGSYAMGWYRQAPGKEREFVAAISLSGGNTYYADSVKGRFTISRDNAKNTVYLQMNSLKPEDTAVYYCAADYEYSGYGYWGQGTQVTVSS | high polyreactivity |
